Reference: US20220340678A1
Blank lines part the entries; values can stand above or below the substance they belong to.

Assays:
[1] = molecular target: p40 without a fusion partner (human) (UniProt P29460); assay: cell-based or functional assay
[2] = molecular target: p40-IgG (anti-uPAR M37 IgG) (human) (UniProt P29460); assay: cell-based or functional assay
[3] = molecular target: p40-Fab fusion protein (human) (UniProt P29460); assay: cell-based or functional assay
[4] = molecular target: p35-MSA fusion protein (human; mouse) (UniProt P29459); assay: BLI (Octet), biotinylated p35-MSA against p40-fab, 47 hr at 37 C
[5] = molecular target: p35-MSA fusion protein (human; mouse) (UniProt P29459); assay: BLI (Octet), biotinylated p35-MSA against p40-fab, 4 hr at 37 C
[6] = molecular target: p35-MSA fusion protein (human; mouse) (UniProt P29459); assay: BLI (Octet), biotinylated p35-MSA against p40-fab, 24 hr at 37 C
[7] = molecular target: p35-MSA fusion protein (human; mouse) (UniProt P29459); assay: BLI (Octet), biotinylated p35-MSA against p40-fab, 0 hr at 37 C
[8] = molecular target: GM-CSF receptor on U937 cells (human); assay: cell-based or functional assay
[9] = molecular target: IL-12 receptor on HEK-BLUE IL-12 cells; assay: cell-based or functional assay

Sequence of p35-MSA fusion protein (human; mouse) (P29459 23-219): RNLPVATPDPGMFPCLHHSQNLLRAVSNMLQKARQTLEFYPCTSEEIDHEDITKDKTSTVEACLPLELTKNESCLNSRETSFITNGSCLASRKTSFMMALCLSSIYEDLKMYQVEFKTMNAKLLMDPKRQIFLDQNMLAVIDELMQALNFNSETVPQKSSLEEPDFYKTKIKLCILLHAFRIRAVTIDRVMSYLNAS
Sequence of p40-Fab fusion protein (human) (P29460 23-328): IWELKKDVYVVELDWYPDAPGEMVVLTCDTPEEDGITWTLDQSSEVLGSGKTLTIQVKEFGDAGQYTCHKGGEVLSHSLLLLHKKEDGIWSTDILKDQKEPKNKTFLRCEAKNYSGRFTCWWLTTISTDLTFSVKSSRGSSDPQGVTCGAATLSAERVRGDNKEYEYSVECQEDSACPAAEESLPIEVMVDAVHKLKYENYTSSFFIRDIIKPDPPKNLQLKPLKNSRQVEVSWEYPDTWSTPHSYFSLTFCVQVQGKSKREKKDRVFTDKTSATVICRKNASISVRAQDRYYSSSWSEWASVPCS
Sequence of p40-IgG (anti-uPAR M37 IgG) (human) (P29460 23-328): as above
Sequence of p40-Fab fusion protein (P29460 23-328): as above

EC50, % pStat4 formation in CD4+ T cells [1]: 0.842 nM
EC50, % pStat4 formation in CD8+ T cells [1]: 1.06 nM
EC50, IFN gamma production by T cells [1]: 0.657 nM
EC50 fold change relative to scIL-12, IFN gamma production [1]: 128 fold
EC50 fold change relative to scIL-12, pStat4 in CD4+ T cells [1]: 16.4 fold
EC50 fold change relative to scIL-12, pStat4 in CD8+ T cells [1]: 14.2 fold
EC50, % pStat4 formation in CD4+ T cells [2]: 0.173 nM
EC50, % pStat4 formation in CD8+ T cells [2]: 0.571 nM
EC50, IFN gamma production by T cells [2]: 0.403 nM
EC50 fold change relative to scIL-12, IFN gamma production [2]: 78.2 fold
EC50 fold change relative to scIL-12, pStat4 in CD4+ T cells [2]: 3.37 fold
EC50 fold change relative to scIL-12, pStat4 in CD8+ T cells [2]: 7.66 fold
EC50, % pStat4 formation in CD4+ T cells [3]: 0.708 nM
EC50, % pStat4 formation in CD8+ T cells [3]: 0.912 nM
EC50, IFN gamma production by T cells [3]: 0.559 nM
EC50 fold change relative to scIL-12, IFN gamma production [3]: 109 fold
EC50 fold change relative to scIL-12, pStat4 in CD4+ T cells [3]: 13.8 fold
EC50 fold change relative to scIL-12, pStat4 in CD8+ T cells [3]: 12.2 fold
Substance: p35-MSA fusion protein (from UniProt P29459 23-219)

Kd [4]: 10.5 nM
koff [4]: 0.000376 s⁻¹
kon [4]: 35800 M⁻¹ s⁻¹
Kd [5]: 7.54 nM
koff [5]: 0.000385 s⁻¹
kon [5]: 51100 M⁻¹ s⁻¹
Kd [6]: 11.1 nM
koff [6]: 0.000422 s⁻¹
kon [6]: 38100 M⁻¹ s⁻¹
Kd [7]: 7.82 nM
koff [7]: 0.000462 s⁻¹
kon [7]: 59100 M⁻¹ s⁻¹
Substance: p40-Fab fusion protein (from UniProt P29460 23-328)

pSTAT5 EC50, U937 cells, no competitor [8]: 18.6 pM
Substance: recombinant human GM-CSF (R&D Systems, cat # 215-GM-050/CF) (from UniProt P04141 18-144) (ligand)

potency, SEAP reporter in HEK-BLUE IL-12 cells [9]: 0.018 nM
Substance: wild-type human IL-12 (R&D Systems, Cat. No. 219-IL-005/CF) (from UniProt P29459 23-219; P29460 23-328) (ligand)
